Source: patent US9096835B2, “DNA polymerase” (Medical Research Council, priority 2003, dated 2015)

B1: 3B6: third round clone, abasic site bypass; SEQ ID NO: 90 (protein)
chain: MAMLPLFEPKGRVLLVDGHHLAYRAFFALKGLTTSRGEPVQAVYGFAKSLLKALKEDGYKAVFVVFDAKAPSFRHEAYEAYKAGRAPTPEDFPRQLALIKELVDLLGFTRLEVQGYEADDVLATLAKKAEKEGYEVRILTADRDLYQLVSDRVAVLHPEGHLITPEWLWEKYGLRPEQWVDFRALVGDPSNNLPGVKGIGEKTALKLLKEWGSLENLLKNLDRVKPENVREKIKAHLEDLRLSLELSRVRTDLPLEVDLAQGRELDRERLRAFLERLEFGGLLHEFGLLESPKALEEAPWPPPEGAFVGFVLSRKEPMWADLLALAAARGGRVHRAPEPYKALRDLKEARGLLAKDLSVLALREGLGLPPGDDPMLLAYLLDPSNTAPEGVARRYGGEWTEEAGERAALSERLFANLWGRLEGEERLLWLYREVDRPLSAVLAHMEATGVRLDVAYLRALSLEVAEEIARLEAEVFRLAGHPFNLNSRDQLERVLFDELGLPAIGKTEKTGKRSTSAAVLEALREAHPIVEKILQYRELTKLKSTYIDPLPNLIHPRTGRLHTRFNQTATATGRLSSSDPNLQNIPVRTPLGQRIRRAFIAEEGWLLVVLDYSQIELRVLAHLSGDENLIRVFQEGRDIHTETASWMFGVPREAVDPLMRRAAKTINFGVLYGMSAHRLSQELAIPYEEAQAFIERYFQSFPKVRAWIEKTLEEGRKRGYVETLFGRRRYVPDLNARVKGVREAAERMAFNMPVQGTAADLMKLAMVKLFPRLREMGARMLLQVHDELLLEAPQARAGEVAALAKEAMEKAYPLAVPLEVKVGIGEDWLSAKE
modifications: Mutant Taq polymerase
B2: 3B8: third round clone; SEQ ID NO: 92 (protein)
chain: MAMLPLFEPKGRVLLVDGHHLAYRTFFALKGLTTSRGEPVQVVYGFAKSLLKALKEDGYKAVFVVFDAKAPSLRHEAYEAYKAGRAPTPEDFLRQLALIKELVDLLGFTRLEVQGYEADDVLATLAKKAEKEGYEVRILTADRDLYQLVSDRVAVLHPEGHLITPEWLWEKYGLRPEQWVDFRALVGDPSDNLPGVKGIGEKTALKLLKEWGSLENLLKNLDRLKPAIREKILAHMDDLKLSWDLAKVRTDLPLEVDFAKRREPDRERLRAFLERLELGSLLHEFGLLESPKTLEEASWPPPEGAFVGFVLSRKEPMWADLLALAAARGGRVHRAPEPYKALRDLKEARGLLAKDLSVLALREGLGLPPGDDPMLLAYLLDPSNTTPEGVARRYGGEWTKEAGERAALSERLFANLWGRLEGEERLLWLYREVDRPLSAVLAHMEATGVRLDVAYLRALSLEVAEEIARLEAEVFRLAGHPFNLNSRDQLERVLFDELGLPAIGKTEKTGKRSTSAAVLEALREAHPIVEKILQYRELTKLKSTYIDPLPDLIHPRTGRLHTRFNQTATATGRLSSSDPNLQNIPVRTPLGQRIRRAFVAEEGWLLVVLDYSQIELRVLAHLSGDENLTRVFLEGRDIHTETASWMFGVPREAVDPLMRRAAKTINFGVLYGMSAHRLSQELAIPYEEAQAFIERYFQSFPKVRAWIEKTLEEGRKRGYVETLFGRRRYVPDLNARVKSVREAAERMAFNMPVQGTAADLMKLAMVKLFPRLREMGARMLLQVHDELLLEAPQARAEEVAALAKEAMEKAYPLAVPLEVKEGIGEDWLSAKE
modifications: Mutant Taq polymerase
B3: 3C12: third round clone, four mismatch extension; SEQ ID NO: 96 (protein)
chain: MAMLPLFEPKGRVLLVDGHHLAYRTFFALKGPTTSRGEPVQVVYGFAKSLLKALKEDGYKAVFVVFDAKAPSFRHKAYEAYRAGRAPTPEDFPRQLALIKELVDLLGFTRLEVPGYEADDVLATLAKKAEKEGYEVRILTADRGLYQLVSDRVAVLHPEGHLITPEWLWEKYGLRPEQWVDFRALVGDPSDNLPGVKGIGEKTALKLLKEWGSLENLLKNLDRVKPENVREKIKAHLEDLRLSLELSRVRTDLPLEVDLAQGREPDREGLRAFLERLEFGSLLHEFGLLESPKALEEAPWPPPEGAFVGFVLSRKEPMWADLLALAAARGGRVHRAPEPYKALRDLKEARGLLAKDLSVLALREGLGLPPGDDPMLLAYLLDPSNTAPEGVARRYGGEWTEEAGERAALSERLFANLWGRLEGEERLLWLYREVDRPLSAVLAHMEATGVRLDVACLQALSLELAEEIRRLEEEVFRLAGHPFNLNSRDQLERVLFDELGLPAIGKTEKTGKRSTSAAILEALREAHPIVEKILQYRELTKLKSTYIDPLPDLIHPRTGRLHTRFNQTATATGRLSSSGPNLQNIPVRTPLGQRIRRAFVAEEGWLLVVLDYSQIELRVLAHLSGDENLTRVFLEGRDIHTETASWMFGVPREAVDPLMRRAAKTINFGVLYGMSAHRLSQELAIPYEEAQAFIERYFQSFPKVRAWIEKTLEEGRKRGYVETLFGRRRYVPDLNARVKSVREAAERMAFNMPVQGTAADLMKLAMVKLFPRLREMGARMLLQVHDELLLEAPQARAEEVAALAKEAMEKAYPLAVPLEVKVGIGEDWLSAKE
modifications: Mutant Taq polymerase
B4: 3B5: third round clone, four mismatch extension; SEQ ID NO: 88 (protein)
chain: MAMLPLFEPKGRVLLVDGHHLAYRTSFALKGPTTSRGEPVQVVYGFAKSLLKALKEDGYKAVFVVFDAKAPPFRHKAYEAYRAGRAPTPEDFPRQLALVKELVDLLGFTRLEVPGYEADDVLATLAKKAEKEGYEVRILTADRGLYQLVSDRVAVLHPEGHLITPEWLWEKYGLRPEQWVDFRALVGDPSDNLPGVKGIGEKTALKLLKEWGSLENLLKNLDRVKPENVREKIKAHLEDLRLSLELSRVRTDLPLEVDLAQGREPDRERLRAFLERLEFGSLLHEFGLLESPKALEEAPWPPPEGAFVGFVLSRKAPMWADLLALAAARGGRVYRAPEPYKALRDLKEARGLLAKDLSVLALREGLGLPPGDDPMLLAYLLDPSNTTPEGVARRYGGEWTEEAGERAALSERLFANLWGRLEGEERLLWLYREVDRPLSAVLAHMEATGVRLDVACLQALSLELAEEIRRLEEEVFRLAGHTFNLNSRDQLERVLFDELGLPAIGKTEKTGKRSTSAAILEALREAHPIVEKILQYRELTKLKSTYIDPLPDLIHPRTGRLHTRFNQTATATGRLSSSDPNLQNIPVRTPLGQRIRRAFIAEEGWLLVVLDYSQIELRVLAHLSGDENLIRVFQEGRDIHTETASWMFGVPREAVDPLMRRAAKTINFGVLYGMSAHRLSQELAIPYEEAQAFIERYFQSFPKVRAWIEKALEEGRRRGYVETLFGRRRYVPDLNARVKSVREAAERMAFNMPVQGTAADLMKLAMVKLFPRLREMGARMLLQVHDELLLEAPQARAEEVAALAKEAMEKAYPLAVPLEVKVGIGEDWLSAKE
modifications: Mutant Taq polymerase

What was measured:
Assay type in all cases: biochemical
[1] = test system: primers with an abasic site seven bases from their 3′ end; test: Abasic site bypass in PCR; conditions: 176 bp product, 20 cycles of PCR
Experimental: FIG. 10. A list of polymerases selected to extend four mismatches were assayed for their ability to extend abasic sites in PCR. Primers with an abasic site seven bases from their 3′ end were designed. Such primers will prevent exponential amplification of the target sequence, restricting it to […] amplification, unless the abasic site is bypassed. […] (A) Screen which identified clone A10. (B) A further 4 polymerases that display good abasic site bypass. Lane M: markers, Hae III digest of Φ X174.
A list of polymerases selected to extend four mismatches were assayed for their ability to extend abasic sites in PCR (FIG. 10).

four mismatch primers = test: PCR screen of clones with four mismatch primers; conditions: 292 base pair product, 50 cycles of PCR
Experimental: The resultant clones from both CSR and CST were screened and ranked by PCR assay. Briefly, 2 μl of induced cells were added to 20 μl of PCR mix with the relevant 4 mismatch primers. Clones that produced a band were then subjected to further analysis and their activity on single, double and quadruple mismatch primers (single mismatch primers: 5′-CAGGAAACAGCTATGACAAAAATCTAGATAACGAGGGA-3′ (SEQ ID NO: 48) and 5′-GTAAAACGACGGCCAGTACCACCGAACTGCGGGTGACGCCAAGCC 3′ (SEQ ID NO: 49); double mismatch primers: CAGGAAACAGCTATGACTCGACAAAAATCTAGATAACGACC (SEQ ID NO: 50) and GTAAAACGACGGCCAGTTTATTAACCACCGAACTGC (SEQ ID NO: 51); four mismatch primers above.) was investigated. Polymerases that could extend all of these mismatches were found, though many polymerases could do only one of the mismatches and […].
The best first and second round clones were shuffled as described above and subjected to another round of CSR. The same two sets of mismatch primers with four mismatches at their 3′ end were used in the emulsion as two separate sources of selective pressure. This was then dealt with as above and the resultant clones were screened and ranked by PCR assay (as above). Once again, polymerases that could extend all of these mismatches were found. In particular, clones 3B5.

[2] = test system: template containing an abasic site; test: Translesion replication assay (primer extension), abasic site; conditions: gel-extension assay, 60° C.
Experimental: Template primers 22 (undamaged) or 23 (containing a synthetic abasic site) were synthesized by Lofstrand Laboratories (Gaithersburg, Md.). Template primer 24 (containing a single cis-syn thymine dimer), was synthesized as described (34). Primer 25 was ^32P-labeled and annealed to one of the three templates 22, 23, 24 (at a primer template ratio of molar 1:1.5) and extended in 40 mM Tris.HCl at pH 8.0, 5 mM MgCl2, 100 μM of each dNTP, 10 mM DTT, 250 μg/ml BSA, 2.5% glycerol, 10 nM primer-template DNA and 0.1 Unit of polymerase at 60° C. for various times.
Primer extension assays were essentially as described in (Ghadessy et al., 2004). Briefly, undamaged oligonucleotides and a 51mer containing a synthetic abasic site were synthesized by Lofstrand Laboratories (Gaithersburg, Md.) using standard techniques and were gel purified prior to use. A 20mer primer (LES—20 P) with the sequence 5′-[…]-3′ (SEQ ID NO: 99) was 5′-labeled with [^32P]ATP (5000 Ci/mmole; 1 Ci=37 GBq) (Pharmacia) using T4 polynucleotide kinase (Invitrogen, Carlsbad Calif.). Radiolabeled primer-template DNAs were prepared by annealing the 5′[^32P] labeled 20mer primer to one of the two following 51mer templates (at a primer template ratio of molar 1:1.5). 1) undamaged DNA (UNDT51T); 5′-AGCTACCATGCCTGCACGAATTCGGCATCCGTCGCGACCACGGTCGCAGCG-3′ (SEQ ID NO: 100); 2) an oligo (LABA51T) containing a synthetic abasic site (indicated as an X in bold font); 5′-AGCTACCATGCCTGCACGACA XCG GCATCCGTCGCGACCACGGTCGCAGCG-3′ (SEQ ID NO: 101). Standard replication reactions of 10 contained 40 mM Tris.HCl at pH 8.0, 5 mM MgCl2, 100 μM of each ultrapure dNTP (Amersham Pharmacia Biotech, NJ), 10 mM DTT, 250 μg/ml BSA, 2.5% glycerol, 10 nM 5′[32P] primer-template DNA and 0.1 Unit of polymerase. After incubation at 60° C. for various times reactions were terminated by the addition of 10 μl of 95% formamide/10 mM EDTA and the samples heated to 100° C. for 5 min. Reaction mixtures (5 μl) were subjected to 20% polyacrylamide/7 M Urea gel electrophoresis and replication products visualized by PhosphorImager analysis.

Molecule	amplification product in PCR with abasic site primers [1]	extension of primers containing four mismatches in PCR (four mismatch primers)	extension of primers containing four mismatches in PCR (four mismatch primers; listed as B8)	abasic site bypass in primer extension [2]	extension of primers containing four mismatches in PCR (four mismatch primers; listed as C12)
B1	produced an amplification product	cannot			
B2	produced an amplification product	able to extend primers containing four mismatches	cannot		
B3	produced an amplification product	able to extend primers containing four mismatches		improved abasic site activity	can also extend four mismatched primers in PCR
B4		able to extend primers containing four mismatches			
